# Reference: US20170157251A1 (MacroGenics, published 2017)
# T1: human CD19 on cells (human, UniProt P15391 20-556)
# T1 sequence (looked up): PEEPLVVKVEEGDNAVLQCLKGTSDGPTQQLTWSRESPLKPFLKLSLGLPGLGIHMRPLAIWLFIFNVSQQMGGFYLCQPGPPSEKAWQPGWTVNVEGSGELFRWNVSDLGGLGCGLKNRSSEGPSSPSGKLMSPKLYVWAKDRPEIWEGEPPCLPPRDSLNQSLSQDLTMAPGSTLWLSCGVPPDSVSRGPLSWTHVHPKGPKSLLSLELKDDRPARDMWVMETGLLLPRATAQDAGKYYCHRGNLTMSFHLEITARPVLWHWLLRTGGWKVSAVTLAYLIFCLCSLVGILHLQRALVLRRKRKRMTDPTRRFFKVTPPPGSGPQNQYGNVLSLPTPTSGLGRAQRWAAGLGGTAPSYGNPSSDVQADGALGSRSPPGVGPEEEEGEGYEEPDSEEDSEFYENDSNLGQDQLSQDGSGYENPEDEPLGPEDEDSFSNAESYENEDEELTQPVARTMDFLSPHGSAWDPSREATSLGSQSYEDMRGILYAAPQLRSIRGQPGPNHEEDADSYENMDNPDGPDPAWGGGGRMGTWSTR
# T2: Human CD19-His (human, UniProt P15391 20-291, limits assumed)
# T2 construct: Soluble antigen in SPR; also called soluble human CD19; not shown: His tag
# T2 sequence (looked up): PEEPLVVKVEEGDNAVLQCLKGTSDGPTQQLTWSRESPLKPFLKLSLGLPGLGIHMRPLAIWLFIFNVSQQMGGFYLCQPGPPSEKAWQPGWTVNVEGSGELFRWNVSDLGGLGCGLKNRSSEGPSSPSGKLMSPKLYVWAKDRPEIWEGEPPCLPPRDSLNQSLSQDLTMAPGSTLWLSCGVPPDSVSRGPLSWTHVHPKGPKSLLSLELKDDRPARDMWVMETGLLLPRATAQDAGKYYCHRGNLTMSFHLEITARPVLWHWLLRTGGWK
# T3: Cynomolgus CD19-His (cynomolgus monkey, UniProt A0A2K5W8L9 20-292)
# T3 construct: Soluble antigen in SPR; also called soluble cynomolgus monkey CD19; not shown: His tag
# T3 sequence: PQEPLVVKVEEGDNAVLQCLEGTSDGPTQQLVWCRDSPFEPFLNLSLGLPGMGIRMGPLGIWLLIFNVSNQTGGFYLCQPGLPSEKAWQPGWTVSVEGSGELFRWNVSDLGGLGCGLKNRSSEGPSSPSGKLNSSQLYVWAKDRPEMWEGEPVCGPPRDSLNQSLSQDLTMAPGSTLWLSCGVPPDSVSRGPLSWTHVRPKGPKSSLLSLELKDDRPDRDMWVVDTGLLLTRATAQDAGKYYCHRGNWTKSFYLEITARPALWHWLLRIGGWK
# T4: soluble human CD19-biotin (human, UniProt P15391 20-291, limits assumed, biotin (site not stated))
# T4 construct: Detection antigen of the bifunctional ELISA
# T4 sequence (looked up): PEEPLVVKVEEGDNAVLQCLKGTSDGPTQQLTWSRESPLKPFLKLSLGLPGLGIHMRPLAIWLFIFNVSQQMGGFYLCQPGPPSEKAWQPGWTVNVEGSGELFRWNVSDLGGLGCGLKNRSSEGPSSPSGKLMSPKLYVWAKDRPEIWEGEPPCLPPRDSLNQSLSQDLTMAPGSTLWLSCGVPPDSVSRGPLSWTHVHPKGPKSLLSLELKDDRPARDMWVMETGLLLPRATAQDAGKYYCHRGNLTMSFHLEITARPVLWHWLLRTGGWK
# What was measured:
# [1] = biological target: T1, human CD19 on cells; experiment: cell-based or functional assay
# [2] = biological target: T1, human CD19 on cells; experiment: cell-based or functional assay; remark: listed apart in the source
# [3] = biological target: T1, human CD19 on cells; experiment: cell-based or functional assay; remark: listed apart in the source
# [4] = biological target: cynomolgus monkey CD19 on B cells (cynomolgus monkey); experiment: cell-based or functional assay
# [5] = biological target: T1, human CD19 on cells; experiment: cell-based or functional assay; remark: listed apart in the source
# [6] = biological target: T1, human CD19 on cells; experiment: cell-based or functional assay; remark: listed apart in the source
# [7] = biological target: T1, human CD19 on cells; experiment: cell-based or functional assay; remark: listed apart in the source
# [8] = biological target: T1, human CD19 on cells; experiment: cell-based or functional assay; remark: listed apart in the source
# [9] = biological target: T1, human CD19 on cells; experiment: cell-based or functional assay; remark: listed apart in the source
# [10] = biological target: T2, Human CD19-His; experiment: SPR (BIAcore), DART-A 0-100 nM, soluble antigen
# [11] = biological target: T3, Cynomolgus CD19-His; experiment: SPR (BIAcore), DART-A 0-100 nM, soluble antigen
# [12] = biological target: T3, Cynomolgus CD19-His; experiment: SPR (BIAcore), comparison of KD against human CD19-His
# [13] = biological target: T5, human CD3 on T cells (human, UniProt P07766 23-207; P04234 22-171); experiment: flow cytometry on human blood leukocytes, CD4+ and CD8+ gate (T cells); detection with biotinylated anti-E-coil/K-coil mAb and streptavidin-PE
# T5 construct: also called CD3 on human CD4+ and CD8+ T cells; copies: 1 + 1
# T5 sequence (P07766 23-207 limits assumed, chain 1 of 2): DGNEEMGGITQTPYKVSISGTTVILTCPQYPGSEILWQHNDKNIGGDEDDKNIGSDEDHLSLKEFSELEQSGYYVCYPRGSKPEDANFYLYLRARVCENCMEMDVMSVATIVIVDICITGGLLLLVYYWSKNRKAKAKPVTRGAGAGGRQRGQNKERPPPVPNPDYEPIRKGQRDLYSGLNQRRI
# T5 sequence (P04234 22-171 limits assumed, chain 2 of 2): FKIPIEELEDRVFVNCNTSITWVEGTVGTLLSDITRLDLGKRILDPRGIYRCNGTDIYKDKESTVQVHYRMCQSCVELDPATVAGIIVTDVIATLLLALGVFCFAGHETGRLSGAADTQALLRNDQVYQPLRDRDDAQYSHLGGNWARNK
# [14] = biological target: T6, cynomolgus monkey CD3 on T cells (cynomolgus monkey, UniProt Q95LI5 22-198; Q95LI8 22-171); experiment: flow cytometry on cynomolgus monkey blood leukocytes, CD4+ and CD8+ gate (T cells); detection with biotinylated anti-E-coil/K-coil mAb and streptavidin-PE
# T6 construct: T cells were gated as CD4+ and CD8+; also called CD3 on cynomolgus monkey CD4+ and CD8+ T cells
# T6 sequence (Q95LI5 22-198 limits assumed, chain 1 of 2): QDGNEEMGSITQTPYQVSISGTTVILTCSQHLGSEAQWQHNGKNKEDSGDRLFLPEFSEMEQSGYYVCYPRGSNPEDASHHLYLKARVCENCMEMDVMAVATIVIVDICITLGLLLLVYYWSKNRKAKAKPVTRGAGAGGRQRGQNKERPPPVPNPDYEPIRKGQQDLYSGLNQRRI
# T6 sequence (Q95LI8 22-171 limits assumed, chain 2 of 2): as the sequence (P04234 22-171 limits assumed, chain 2 of 2) above, with I5V, N15K, I20V, S32T, D33N, I34N, T64A, S74N, V83L, H141R counted along it
# [15] = biological target: T4, soluble human CD19-biotin; experiment: bifunctional (bispecific) ELISA: plate coated with soluble human CD3ε/δ, DART titrated, detected with soluble human CD19-biotin; the value reflects simultaneous engagement of both antigens
binder,measurement,setting,value
"DART-A (CD19×CD3 bi-specific monovalent Fc diabody) (bispecific antibody, Three covalently bonded chains; one CD19 site and one CD3 site; Fc with L234A/L235A, knob/hole, H435R on third chain; also called CD19×CD3 bi-specific molecule; CD19×CD3 bi-specific DART-A) chain 1: ENVLTQSPATLSVTPGEKATITCRASQSVSYMHWYQQKPGQAPRLLIYDASNRASGVPSRFSGSGSGTDHTLTISSLEAEDAATYYCFQGSVYPFTFGQGTKLEIKGGGSGGGGEVQLVESGGGLVQPGGSLRLSCAASGFTFSTYAMNWVRQAPGKGLEWVGRIRSKYNNYATYYADSVKGRFTISRDDSKNSLYLQMNSLKTEDTAVYYCVRHGNFGNSYVSWFAYWGQGTLVTVSSASTKGEVAACEKEVAALEKEVAALEKEVAALEKGGGDKTHTCPPCPAPEAAGGPSVFLFPPKPKDTLMISRTPEVTCVVVDVSHEDPEVKFNWYVDGVEVHNAKTKPREEQYNSTYRVVSVLTVLHQDWLNGKEYKCKVSNKALPAPIEKTISKAKGQPREPQVYTLPPSREEMTKNQVSLWCLVKGFYPSDIAVEWESNGQPENNYKTTPPVLDSDGSFFLYSKLTVDKSRWQQGNVFSCSVMHEALHNHYTQKSLSLSPGK chain 2: QAVVTQEPSLTVSPGGTVTLTCRSSTGAVTTSNYANWVQQKPGQAPRGLIGGTNKRAPWTPARFSGSLLGGKAALTITGAQAEDEADYYCALWYSNLWVFGGGTKLTVLGGGGSGGGGQVTLRESGPALVKPTQTLTLTCTFSGFSLSTSGMGVGWIRQPPGKALEWLAHIWWDDDKRYNPALKSRLTISKDTSKNQVFLTMTNMDPVDTATYYCARMELWSYYFDYWGQGTTVTVSSASTKGKVAACKEKVAALKEKVAALKEKVAALKE chain 3: not shown",EC50 of cytotoxicity against Raji/GF target cells with cynomolgus monkey PBMCs as effector cells (E:T = 30:1),[1],0.013 pM
same,"EC50 of redirected killing of HBL-2 cells, human T cells, E:T 10:1 (average)",[1],10.5 pM
same,"EC50 of redirected killing of Jeko-1 cells, human T cells, E:T 10:1 (average)",[1],0.146 pM
same,"EC50 of redirected killing of Raji/GF cells, human T cells, E:T 10:1 (average)",[1],0.307 pM
same,"EC50 of redirected killing of Raji/GF cells, E:T = 2.5:1, 48 hours",[2],1.08 pM
same,"EC50 of redirected killing of Raji/GF cells, E:T = 5:1, 24 hours",[2],0.67 pM
same,"EC50 of redirected killing of Raji/GF cells, E:T = 5:1, 48 hours",[2],0.38 pM
same,"EC50 of redirected killing of Raji/GF cells, E:T = 10:1, 24 hours",[2],0.14 pM
same,"EC50 of redirected killing of Raji/GF cells, E:T = 10:1, 48 hours",[2],0.0441 pM
same,"EC50 of redirected killing of Raji/GF cells, E:T = 1:1, 72 hours",[3],2.79 pM
same,"EC50 of redirected killing of Raji/GF cells, E:T = 1:1, 96 hours",[3],0.44 pM
same,"EC50 of redirected killing of Raji/GF cells, E:T = 2.5:1, 72 hours",[3],1.54 pM
same,"EC50 of redirected killing of Raji/GF cells, E:T = 2.5:1, 96 hours",[3],0.422 pM
same,"EC50 of autologous B cell depletion, cynomolgus monkey PBMCs, donor Cyno 5 (E:T = 3:1)",[4],166 pM
same,"EC50 of autologous B cell depletion, cynomolgus monkey PBMCs, donor Cyno 6 (E:T = 2:1)",[4],859 pM
same,"EC50 of autologous B cell depletion, cynomolgus monkey PBMCs, donor Cyno 7 (E:T = 3:1)",[4],107 pM
same,"EC50 of autologous B cell depletion, cynomolgus monkey PBMCs, donor Cyno 8 (E:T = 7:1)",[4],239 pM
same,"mean EC50 of autologous B cell depletion, cynomolgus monkey PBMCs",[4],343 pM
same,"EC50 of autologous B cell depletion, human PBMCs, donor Human 5 (E:T = 8:1)",[5],6.27 pM
same,"EC50 of autologous B cell depletion, human PBMCs, donor Human 6 (E:T = 8:1)",[5],2.75 pM
same,"EC50 of autologous B cell depletion, human PBMCs, donor Human 7 (E:T = 5:1)",[5],5.52 pM
same,"EC50 of autologous B cell depletion, human PBMCs, donor Human 8 (E:T = 9:1)",[5],1.84 pM
same,"mean EC50 of autologous B cell depletion, human PBMCs",[5],4.2 pM
same,"mean EC50 of IFN-γ release, CTL assay, purified human T cells with Raji/GF tumor cells (E:T = 10:1), n = 2",[6],5.51 pM
same,"mean EC50 of IL-2 release, CTL assay, purified human T cells with Raji/GF tumor cells (E:T = 10:1), n = 2",[6],6.32 pM
same,"mean EC50 of TNF-α release, CTL assay, purified human T cells with Raji/GF tumor cells (E:T = 10:1), n = 2",[6],3.71 pM
same,"mean EC50 of cytotoxicity, CTL assay, HBL-2 (n = 5), human T cells E:T = 10:1",[6],0.11 pM
same,"mean EC50 of cytotoxicity, CTL assay, Jeko-1 (n = 3), human T cells E:T = 10:1",[6],0.15 pM
same,"mean EC50 of cytotoxicity, CTL assay, Raji/GF (n = 5), human T cells E:T = 10:1",[6],0.31 pM
same,"EC50 of redirected killing of Raji/GF cells, T cells cultured 24 hours with 0 nM ibrutinib, E:T 10:1, 24 hours",[7],0.042 ng/mL
same,"EC50 of redirected killing of Raji/GF cells, T cells cultured 48 hours with 0 nM ibrutinib, E:T 10:1, 24 hours",[7],0.0016 ng/mL
same,"EC50 of redirected killing of Raji/GF cells, T cells cultured 72 hours with 0 nM ibrutinib, E:T 10:1, 24 hours",[7],0.0031 ng/mL
same,"EC50 of redirected killing of Raji/GF cells, T cells pretreated 24 hours with 25 nM ibrutinib",[7],0.028 ng/mL
same,"EC50 of redirected killing of Raji/GF cells, T cells pretreated 24 hours with 250 nM ibrutinib",[7],0.033 ng/mL
same,"EC50 of redirected killing of Raji/GF cells, T cells pretreated 24 hours with 750 nM ibrutinib",[7],0.037 ng/mL
same,"EC50 of redirected killing of Raji/GF cells, T cells pretreated 24 hours with 2500 nM ibrutinib",[7],0.104 ng/mL
same,"EC50 of redirected killing of Raji/GF cells, T cells pretreated 48 hours with 25 nM ibrutinib",[7],0.0015 ng/mL
same,"EC50 of redirected killing of Raji/GF cells, T cells pretreated 48 hours with 250 nM ibrutinib",[7],0.0011 ng/mL
same,"EC50 of redirected killing of Raji/GF cells, T cells pretreated 48 hours with 750 nM ibrutinib",[7],0.0012 ng/mL
same,"EC50 of redirected killing of Raji/GF cells, T cells pretreated 48 hours with 2500 nM ibrutinib",[7],0.0044 ng/mL
same,"EC50 of redirected killing of Raji/GF cells, T cells pretreated 72 hours with 25 nM ibrutinib",[7],0.0021 ng/mL
same,"EC50 of redirected killing of Raji/GF cells, T cells pretreated 72 hours with 250 nM ibrutinib",[7],0.002 ng/mL
same,"EC50 of redirected killing of Raji/GF cells, T cells pretreated 72 hours with 750 nM ibrutinib",[7],0.0018 ng/mL
same,"EC50 of redirected killing of Raji/GF cells, T cells pretreated 72 hours with 2500 nM ibrutinib",[7],0.0085 ng/mL
same,"EC50 of redirected killing of Raji/GF cells, 0 nM ibrutinib, CTL assay 24 hours, E:T 10:1",[8],0.014 ng/mL
same,"EC50 of redirected killing of Raji/GF cells, 0 nM ibrutinib, CTL assay 48 hours, E:T 10:1",[8],0.0022 ng/mL
same,"EC50 of autologous B cell depletion, human PBMCs, 0 nM ibrutinib, 48 hours",[9],0.79 ng/mL
same,Kd,[10],2000 pM
same,koff,[10],0.00056 s⁻¹
same,kon,[10],280000 M⁻¹ s⁻¹
same,Kd,[11],20300 pM
same,koff,[11],0.0047 s⁻¹
same,kon,[11],240000 M⁻¹ s⁻¹
same,fold lower affinity than for human CD19,[12],~10 fold
same,binding result,[13],binds
same,binding result,[14],binds
same,EC50 (read off the curve),[15],~80 ng/mL
